This test addresses T1, human Thyroid Stimulating Hormone Receptor (TSHR), expressed on transfected or transduced cells (human, UniProt P16473 21-764).
T1 construct: also called Hu-TSHR; human TSHR
Kind of test: flow cytometry on HEK-293T cells transfected with TSHR expression vectors.

Procedure: Flow Cytometry. Flow cytometry was performed to assess specific binding of TSHR and HER2 bispecific antibodies or to quantify their membrane expression. […] For flow analysis cells were harvested using 0.02% EDTA in phosphate-buffered saline (PBS). […] After washing, cells were captured using a BD LSRFortessa (BD Biosciences). Cells stained with DAPI (1 μg/mL) were excluded. Cytometric analysis was performed using FlowJo (V10.6; FlowJo) to obtain median fluorescence intensity (MFI) or to quantify molecules per cell using QuantiBRITE PE reference beads (BD Biosciences).

B1: K1-70/CD3 T-BsAb (anti-TSHR x anti-CD3 bispecific antibody, IgG-[L]-scFv 2+2 format) (bispecific antibody)
light: QSVLTQPPSVSAAPGQKVTISCSGSSSDIGSNYVSWYQQFPGTAPKLLIYDNNKRPSAIPDRFSGSKSGTSATLGITGLQTGDEADYYCGTWDSRLGIAVFGGGTQLTVLGQPKAAPSVTLFPPSSEELQANKATLVCLISDFYPGAVTVAWKADSSPVKAGVETTTPSKQSNNKYAASSYLSLTPEQWKSHRSYSCQVTHEGSTVEKTVAPTECTSGGGGSGGGGSGGGGSQVQLVQSGGGVVQPGRSLRLSCKASGYTFTRYTMHWVRQAPGKCLEWIGYINPSRGYTNYNQKFKDRFTISRDNSKNTAFLQMDSLRPEDTGVYFCARYYDDHYSLDYWGQGTPVTVSSGGGGSGGGGSGGGGSGGGGSGGGGSGGGGSDIQMTQSPSSLSASVGDRVTITCSASSSVSYMNWYQQTPGKAPKRWIYDTSKLASGVPSRFSGSGSGTDYTFTISSLQPEDIATYYCQQWSSNPFTFGCGTKLQITR
heavy: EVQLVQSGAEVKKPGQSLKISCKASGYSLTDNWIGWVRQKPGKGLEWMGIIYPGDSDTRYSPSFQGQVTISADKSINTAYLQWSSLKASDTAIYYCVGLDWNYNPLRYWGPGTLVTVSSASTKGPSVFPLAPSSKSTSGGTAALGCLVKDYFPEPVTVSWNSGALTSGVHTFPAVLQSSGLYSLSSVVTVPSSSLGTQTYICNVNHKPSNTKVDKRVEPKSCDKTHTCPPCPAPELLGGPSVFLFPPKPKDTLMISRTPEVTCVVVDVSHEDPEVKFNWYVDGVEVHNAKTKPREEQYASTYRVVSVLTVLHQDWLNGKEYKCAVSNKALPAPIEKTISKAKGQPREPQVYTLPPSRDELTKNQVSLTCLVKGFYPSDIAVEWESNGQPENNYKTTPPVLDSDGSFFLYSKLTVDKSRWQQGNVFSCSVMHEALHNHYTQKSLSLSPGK
notes: also called K1-70/CD3 BsAb; K1-70-TSHR/CD3
Turning to B1, the binding result is on record as “binds”.

B2: M22/CD3 T-BsAb (anti-TSHR x anti-CD3 bispecific antibody, IgG-[L]-scFv 2+2 format) (bispecific antibody)
light: LTVLTQPPSVSGAPRQRVTISCSGNSSNIGNNAVNWYQQLPGKAPKLLIYYDDQLPSGVSDRFSGSRSGTSASLAIRGLQSEDEADYYCTSWDDSLDSQLFGGGTRLTVLGQPKAAPSVTLFPPSSEELQANKATLVCLISDFYPGAVTVAWKADSSPVKAGVETTTPSKQSNNKYAASSYLSLTPEQWKSHRSYSCQVTHEGSTVEKTVAPTECTSGGGGSGGGGSGGGGSQVQLVQSGGGVVQPGRSLRLSCKASGYTFTRYTMHWVRQAPGKCLEWIGYINPSRGYTNYNQKFKDRFTISRDNSKNTAFLQMDSLRPEDTGVYFCARYYDDHYSLDYWGQGTPVTVSSGGGGSGGGGSGGGGSGGGGSGGGGSGGGGSDIQMTQSPSSLSASVGDRVTITCSASSSVSYMNWYQQTPGKAPKRWIYDTSKLASGVPSRFSGSGSGTDYTFTISSLQPEDIATYYCQQWSSNPFTFGCGTKLQITR
heavy: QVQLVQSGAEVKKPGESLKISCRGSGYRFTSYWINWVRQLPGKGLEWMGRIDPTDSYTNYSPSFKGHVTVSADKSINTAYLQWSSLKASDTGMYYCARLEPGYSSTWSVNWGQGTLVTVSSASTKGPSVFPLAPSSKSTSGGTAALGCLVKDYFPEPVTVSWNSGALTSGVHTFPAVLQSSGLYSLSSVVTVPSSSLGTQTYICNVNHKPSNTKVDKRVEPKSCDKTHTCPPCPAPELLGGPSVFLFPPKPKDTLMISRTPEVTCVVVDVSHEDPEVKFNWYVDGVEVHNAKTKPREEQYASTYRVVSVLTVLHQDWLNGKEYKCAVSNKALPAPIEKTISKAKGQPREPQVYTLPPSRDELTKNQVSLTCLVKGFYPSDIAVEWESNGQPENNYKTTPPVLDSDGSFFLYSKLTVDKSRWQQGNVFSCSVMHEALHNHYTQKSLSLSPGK
notes: Expressed in Expi-CHO cells and purified on protein A; also called M22/CD3 BsAb; M22-TSHR/CD3
In the case of B2, the binding result was “binds”.

The values above are taken from patent US20240415888A1 (Memorial Sloan Kettering, published 2024).
